Data from patent US20050064514A1.
Several values for one entry are separate records, joined by “and”; a condition that tells them apart may be missing. Identical values can stand only once.

Key:
[1] = target: soluble monomeric FcγRIIIA-linker-AVITAG (158V allele) (human) (UniProt P08637); assay: BIAcore
[2] = target: soluble monomeric FcγRIIIA-linker-AVITAG (158V allele) (human) (UniProt P08637); assay: BIAcore separate fit
[3] = target: FcγRIIB-Fc fusion protein (soluble dimeric FcγRIIB) (human) (UniProt P31994); assay: BIAcore separate fit
Chain of FcγRIIB-Fc fusion protein (soluble dimeric FcγRIIB) (human) (P31994 43-217): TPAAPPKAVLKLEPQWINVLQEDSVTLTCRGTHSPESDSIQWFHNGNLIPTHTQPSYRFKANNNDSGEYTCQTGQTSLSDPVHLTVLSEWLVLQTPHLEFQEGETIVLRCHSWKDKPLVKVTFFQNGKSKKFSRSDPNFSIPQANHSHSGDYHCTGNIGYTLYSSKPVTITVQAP

[4] = target: FcγRIIB-Fc fusion protein (soluble dimeric FcγRIIB) (human) (UniProt P31994); assay: BIAcore
[5] = target: soluble monomeric FcγRIIIA-linker-AVITAG (158V allele) (human) (UniProt P08637); assay: ELISA
[6] = target: soluble FcγRIIB (form used in the ELISA not stated) (human) (UniProt P31994); assay: ELISA
Chain of soluble FcγRIIB (form used in the ELISA not stated) (human) (P31994 43-180 limits assumed, form in doubt): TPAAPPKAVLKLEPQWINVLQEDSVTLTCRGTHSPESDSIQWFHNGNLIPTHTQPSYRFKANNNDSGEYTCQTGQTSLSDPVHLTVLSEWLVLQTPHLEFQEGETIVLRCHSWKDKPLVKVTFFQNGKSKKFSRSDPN

[7] = target: soluble monomeric FcγRIIIA-linker-AVITAG (158V allele) (human) (UniProt P08637); assay: FACS, 0.1 µM biotinylated FcγRIIIA then 0.1 µM unlabeled FcγRIIIA
[8] = target: wild type CH1-CH3 Fc fusion protein displayed on yeast (pYD-CH1) (Saccharomyces cerevisiae; human) (UniProt P32781); assay: FACS titration 1.4 to 0.0006 µM, mean fluorescence, nonlinear regression

Chain of soluble monomeric FcγRIIIA-linker-AVITAG (158V allele) (human) (P08637 17-203 F176V limits assumed, form in doubt): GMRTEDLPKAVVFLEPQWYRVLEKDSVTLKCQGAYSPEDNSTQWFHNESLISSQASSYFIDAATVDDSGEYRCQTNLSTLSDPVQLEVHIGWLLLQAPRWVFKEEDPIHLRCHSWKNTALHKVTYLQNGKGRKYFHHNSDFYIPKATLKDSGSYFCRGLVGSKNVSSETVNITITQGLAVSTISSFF
Chain of P396L Fc variant displayed on the yeast surface (P32781 19-87, stated change not applied): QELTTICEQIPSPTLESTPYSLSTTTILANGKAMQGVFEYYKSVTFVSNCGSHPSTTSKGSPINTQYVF

ch4-4-20 K248M (from UniProt P01857 1-330) (antibody)
Kd [1]: 154 nM and 180 nM

ch4-4-20 K334E, R292L (from UniProt P01857 1-330) (antibody)
Kd [2]: 70.2 nM | Kd [1]: 70.2 nM

ch4-4-20 K288N, A330S, P396L (from UniProt P01857 1-330) (antibody)
Kd [2]: 128 nM | Kd [1]: 128 nM

ch4-4-20 H268N, P396L (from UniProt P01857 1-330) (antibody)
Kd [1]: 178 nM

ch4-4-20 Mut25(0225) (MgFc 25: E333A, K334A, S298A) (from UniProt P01857 1-330) (antibody)
Kd [2]: 48.6 nM

ch4-4-20 G316D, A378V, D399E (from UniProt P01857 1-330) (antibody)
Kd [1]: 72 nM

ch4-4-20 E293V, Q295E, A327T (from UniProt P01857 1-330) (antibody)
Kd [1]: 195 nM

ch4-4-20 K334E, T359N, T366S (from UniProt P01857 1-330) (antibody)
Kd [1]: 55.2 nM

chimeric 4-4-20 anti-fluorescein monoclonal antibody, wild type Fc
Kd [3]: 61.4 nM | koff [3]: 0.085 s⁻¹ | Kd [4]: 94 nM | koff [4]: 0.094 s⁻¹ | ELISA binding relative to wt [5]: 1 x | ELISA, OD [5]: 0.5 OD | ELISA binding relative to wt [6]: 1 x | ELISA, OD [6]: 0.4 OD

ch4-4-20 Y319F, P352L, P396L (from UniProt P01857 1-330) (antibody)
Kd [1]: 125 nM

ch4-4-20 K288M, K334E (from UniProt P01857 1-330) (antibody)
Kd [2]: 75.4 nM | Kd [1]: 75.4 nM

ch4-4-20 Mut 6 (S219V) (from UniProt P01857 1-330) (antibody)
Kd [2]: 264 nM | ELISA, OD [5]: 0.6 OD

ch4-4-20 P247L, N421K (from UniProt P01857 1-330) (antibody)
Kd [1]: 62 nM

ch4-4-20 V379M (from UniProt P01857 1-330) (antibody)
Kd [2]: 214 nM | Kd [1]: 160 nM

P396L Fc variant displayed on the yeast surface (from UniProt P32781 19-87)
loss of cell staining after 1 minute with unlabeled receptor [7]: 50%

soluble FcγRIIIA tetrameric complex (from UniProt P08637 17-203) (receptor)
Kd [8]: 6 nM
